Experimental data from publication PMC4505504.

Biological target: Mycobacterium tuberculosis cytochrome bcc complex (QcrCAB) (M. tuberculosis) (UniProt P9WP35)
Assay: pyridine hemochrome heme quantification

Substance “Mycobacterium smegmatis cytochrome aa3 (cytochrome oxidase) (complex)” has a stoichiometry N of 1.
